What all share (assay): ITC
In general terms: In ITC the heat of successive injections is recorded.

The target of test [1] is SARS-CoV-2 Ubl1 E26A (SARS-CoV-2).
The target in test [2] is SARS-CoV-2 Ubl1 E95A (SARS-CoV-2).
The target in test [3] is SARS-CoV-2 ubiquitin-like domain 1 (Ubl1) of Nsp3 (residues 1–111) (SARS-CoV-2).
Test [4] deals with SARS-CoV-2 Ubl1 D110A (SARS-CoV-2).
Test [5] addresses SARS-CoV-2 Ubl1 Y103A (SARS-CoV-2).

As usually defined, the Kd is the equilibrium constant for the complex coming apart. What is called stoichiometry N is the number of molecules, sites or subunits per partner or assembly. With “SARS-CoV-2 N protein N-terminal domain (NTD, residues 47–174) (from UniProt P0DTC9 47-174) (domain or fragment)”, the Kd in test [1] stood at 78.6 µM; in test [2], 53.1 µM; in test [3] it was 17 µM; in test [4] it was 50.8 µM; in test [5], 57.7 µM. Further, the dH is -3.37 kcal/mol in test [1]; -1.24 kcal/mol in test [2]; -2.7 kcal/mol in test [3]; -2.65 kcal/mol in test [4]; -0.741 kcal/mol in test [5]. Also, the stoichiometry N was determined as 0.74 in test [1]; 0.75 in test [2]; 0.73 in test [3]; 0.64 in test [4]; 0.57 in test [5].

Consider “SARS-CoV-2 N-NTD R92A (from UniProt P0DTC9 47-174) (domain or fragment)”, for which, in test [3], the Kd was 55.7 µM, the dH is -3.18 kcal/mol and the stoichiometry N was determined as 0.58.

For the origin of these results see article PMC9938351.
